From the NTF2 design screens of Basanta et al. (2020)

Experiment: protease stability score; higher = more stable; yeast display proteolysis, trypsin and chymotrypsin;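 note: relative to predicted unfolded state with 0 unfolded-like and 1 meaning tenfold more protease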

| Sequence | protease stability score |
| --- | --- |
| DDIREDLLRIIKLFIDYLITGDWKWIEKLADPHVRVEIDVNGKEIERHGMDQLREHLKHLWDRYDHLEFRIDDFKAIGEYSTLNGTLIVVVDGQKKSVEVRVVIVIINGKIDEVRHEQN | -0.239 |
| DDIRKWMEHVFRDFNRSLKTGDERRSLELLDPHARIDINGVELIGREMFRKELHEMRIHVDDFDIESVDIQGDKVHLRTRVRVTIIVDGVKIHEERELEIHLHKFDGRWYIKEIRVR | 1.46 |
| DDKDEHSYRVAEDVVEAWLTGDWRWLMDMFDPHVRMDIDIDGVDIHLHGRHELARYILEEHQKYKNITVHIEHIRVQGDFIEINTSVRIDGQRHDRRLIIRIINGKIEEHQIHVR | 1.01 |
| DDKDEILLKLAKIVFENELTGDEESLEHLFDPNTRRIVNGKELVGWELISKYWKEQKKEMRVELRLRRHDIQGDKTRVRGEEILEIGEFKLILDVEITIVVINGRFTRIEIRVK | 0.185 |
| DDKDEKSKKWAEMFIHLIETGDEERIRELLDPDVRVEIGDKEIHGRERWLEWERRMRDKYKNLRFRIEHHHIQGDKVHIRTEREIGDKSLDIRIEIIIYNGRAKEFHIDIR | 2.87 |
| DDKDELTRTALEIFEYLEITGDWHVVSREADPHVRIVIGDKHLHGMEIFMDLTEELGVDHSSVHSLRSQGDKIDIDIELHQGEKSFRTKVTAEKVDGRWLIKRVLFR | 1.3 |
| DDKDQHEEVEKFARNVVSGNSDELRKQMDKDVRANVGDKTLRGREEVADFWKHMRDRIDHAEIKEIRFHNGEARIVMQFVHNGRTKQINIVMEFHDGHVKRLRVEDG | 2.58 |
| DDKEEHWHELNRIYFEWFRTGDEELIAKNADPNVRYHIDGREFHGREDFDKLMDHLSRKFKNARIEFDDMRWQGDKLHLRGTLRVGDKNIDTRIHIVIVNGQLHLIIHIRD | 1.31 |
| DDKEETARRILDWITKLLLTGDFDTLHRMADPHMRSNYGEFEMHGMEEHSEWWHRLTLRVDHLREEIKRVTVVNGKIVADLRLRFIIGDKVEVRDITVELIVVDGRLKELRFDVK | 1.14 |
| DDKEKHVKRISEILLHTWHTGNEESLNRMFDPEVKVYWNGRELVGRENSSKHLAEEKRRADHVEIEIKDVHVIGNKMIIDGTLRRHIGDYQDESEVHIHIEVVDGRIKRLELRIK | 1.1 |
| DDKEQRVEELARLLYKMLLTGDWKTLEHLADPHVRMHQGEYNNVGMETVVEHWRRWYEHIRLDDMKITDLKVYGNKLHTDIRLDGEVNGKHRILESELLLIVVDGKMREIEIRII | 1.19 |
| DDKHEINRELTRLFFETWLTGDEDWFQKMLDPHVRVEVGDKRSHGREEAARMLREHFESLGIKHLEYKSIELQGDKTIIDGRLDVDGQTRNSKIKVLIIDGRLTHLHIKLE | 1.01 |
| DDKHELSHKFVRLIMHLIDTGDEDDIHRLLDPHAKLHVGDKRFVGREDIAHFWKKHLDDLGADYRHTRLKHIDLIGEKVIVHTEIDLTVGEYRVTIDSTFVVEKINGRWLSREFRWN | 0.88 |
| DDKKQFLDHAINRLIRALLTGDWHILFRLLDPHVRMIQGDKEYHGRELWREIYFQDIQRVPNLTFLIKDYHIDLQGDKLRIEIEGELIIDGVNIHMEIISEHTKVNGRWSIHHLEIRHQ | 1.33 |
| DDKQRAYEELTRKTLEVIETGDERMIEEMLDPNVRIHIDGKHVHGMEEATRIFLHEFHHLGFKHFEFKSVIEVDEKLIVTGHMRVDGREVELRIVIWKVNGRWTTESIQIHRL | 1.4 |
| DDLDRYAEEAEKRHYENLETGDENRLQENADPHTRMDFNGRKFHGMDHNYHWMRKIREDLGVDNIRIHIHHMSVVDGVLHLDLIIRYGDKELRLHFVSEKINGRWRLKEVYYK | 0.855 |
| DDLEEATEFYIKLYYEAVETGDERLITELADPNMRIDWNGREIHGREEFVRRLREMRVSRIEVQHVDKYGDKLHIHVRIIIEVGDKKIESSSHLISLKFNGRWLLKSMWIK | 1.39 |
| DDLEEEAHKFLRIWLKNIITGDEDTLIELMDPRPRTIFNGVDLHGREDTSKRLSELRFNMRIDDIHVEVQGDKAIALSDVSYELIYNGRHVHLKSEIILTVRKFDGKWKAERLEIRIK | 1.67 |
| DDLEEEAKDAVTKFIHLLLTGDWKEIREMVDPNVRIDVGDKEKHGWEDFIRDALYMHHQVDHIEVRIRHIDIFENRVVTHSVIYIEVNGQDIRLDLTLYIKKINGRWEIRQIEFK | 1.82 |
| DDLEEEVEHFFELFWDDLLTGDEHSLTRQLDPHARFEYGDKVWHGREVYRQFMTQADHRHVEIKHTRVVNGRVEMNIEVRLHINGRRIESTVHIISTKINGQWRLESQHVE | -0.081 |
| DDLEESLKHLLELIIQWIRTGDFHMLSQYADPDVKIHYNGREYIGREFFLQLMREMGANHFSVERIDFQGDKLHVEISFRVGDKETHTRVESWKFNGVWLLKHIEMR | 0.463 |
| DDLEHDHKTVLELLKHLEETGDWDRLAKLADPNVRLQIGDKEWHGRRDMAKVLKRFIEEMRIQHIRFRDMKIQGDKLVFDTELDFEQGDKTVHVRTEIILVVVNGQLKSIEIRIE | 2.44 |
| DDLEHEAHEFVRRFMEDFDTGNEKSFEDLADPNVRLDFDGKRQHGRETVSEWLYRWLYDLGIKHTTLRHVETINGRVHSTAELKVGDKHYDLHVEFKKVDGKWVFQRVYFR | 1.11 |
| DDLEHQARESLDLHTEARKTGDEDQLKNLIDPHVRIEQGDKHIHGMEMFIRHWHKLGADHSEFRLKHVRVIDGRVRIDGEMIIHINGRTISIEVHFNINKINGRWIITEIHIH | 1.09 |
| DDLEHSSETFEKLWLESVFTGDWRSLLEMLDPHARLVINGRDFIGRELVKETLKEFLDRVPNMTLKLEDREVHIQGDKARIELHTRLEVGDKTVDTRIELIVNKIDGRWLLESQIIRIH | 1.08 |

| Sequence | protease stability score |
| --- | --- |
| DDLEKIVLRMLNLWLKSILTGDEEFEEHYADPNVRYEINGVELHGRERFSQWLTDLRRKFKNIRIEIRVHHTEAQGDKMRSEEELIIDFEGRQINREVRIDMKVIDGRIKEVKVHII | 1.42 |
| DDLEKVSHWFNRMWTEILKTGDEKLLKDLLDPHTKLIFENRHEHGREHMISFFKKLLDEMRVHDVKIRDIEVQGDKVISDTSLDLEINGRSFEVETRLLAVKVNGRWYVHEIELR | 2.36 |
| DDLEKWYEDIARLYHHNLLTGDEDVIHELLDPNVRLVVGDKHFHGRESVIEFLKRELTEIRIEDIKIKEVHWVGDFSINRGTLHIRINGVLFDVRSEVIFDVINGKIRRVTRIII | 1.6 |
| DDLEQESHKVFEQYVRDWRTGDEHNVERLADPHVRVLYNGRHSHGWKEFLEHFSRDAQQADHTEFRIDDTDHQGDKMVLNETVILRYGDKEIQIEVELIYRKIDGRWYITEVRFR | 0.204 |
| DDLEREAEEFHRLMHKSVRTGDEKLIEEMFDPNVRLDINGREMHGRHDVVELERRVDHSEWHIEDIRVVGEWADIRGELVIQVGDKEHIYKTRLIVLKIDGKWRTTEMHVR | 0.731 |
| DDLEREAKTMVDRFRELMATGDFEEREHLVDPNTRWHVNGQDFHGRELITEILIKKFEDLGVEKITFRVERIRVVGDKIEVDGVLIIDGREIDTRLNWTKVNGRWIIKFESEK | 0.927 |
| DDLERLVRELLDLWKRALKTGDEDVLSKMFDPDVRLTINGQVSVGREDVLRLWQEWRVDRMEERDVTVQGDKIHMDGHSHVEYDGRRIEVRHEIILVIVNGRAKSQEVRIR | 1.62 |
| DDLETMFRRLFREWIERAETGDESRLRHLADPHYRSDQGDYDLHGREFAHEFLSRLWKELRFTIHIRHMYVYDGRVEVDGEIRVRINGRETTHKIRIEIVIVDGRIESEHIEIR | 1.26 |
| DDLHEDTKRYLKEWIDLMYTGDEEKIFENMDPNTRIIDENHELHGREEVKDWARRMARELRHREFELTHLEVQGNFIHVRGLLIGDQGDKVIIRDVEIISIKINGRWRIESVRFE | 2.34 |
| DDLHRNMKKVADLFIQVWLTGDFEELMHLFDPNVRLKVNGVEMHGRDDFAKFVKEHRERIDHMHFRLDELRIYGDKIVIHGTLHLHQGEKDWHHEVHIHLLVIDGVIRTVEEEER | 2.08 |
| DDLKEDADKYSDLEREARQTGDEDFISNLMDPNVLVLINGREIHGREDVLKWLVDLRRKLGVDRFRSEVEDKHIDVQGDKIRIHGILRLNFNGQHFRIDVHIIFQKVDGRWHVREERYH | 1.41 |
| DDMEEMAKEVFREWFEIVETGDEEKLLKLIDPNTRVDINGQEVHGREDISRITSKLIRELGVKHIRSEVKSFDIVGNKIRVRGLEIRDVGDKHKEIHTHFFIMKIDGKWVITNMHFH | 1.5 |
| DDMEKETRQFTKLWIEALETGDEDFIKHLVDPHAKITVNGVEYHGMESMKDELKKIKNVRMEIKDVRVFNGVSKIDMESHFDGRTHDTRIEIFVVDGRFKEVRLHIR | 1.01 |
| DDMERHARKALRVLIESLMTGDEDDIYRMLDPHVRYIFDGVDFHGRERTKETLERLSREFGLSRVHTELKDSKVYDGRLELHLEVNVDGRRRTVIVHVVKIDGKWYVEELRVQ | 1.26 |
| DDMERHNRWFLRDLIHAIVTGDEELEERLFDPNAKVHIDGVTFIGRELVEFLRKRVDHRRMHVKRTDSQGEYLINHTELILHINGKDVRTDTVWIFHKFNGQWVVHTMEVK | 0.815 |
| DDMHEVAKQLMEELVRNWITGNEDNVRHLLDPDVRIIIGDFIFHGRESLELLLHFYNKHIRWTDYKVHDFRIQGDYLHMDTRLIGIIDGRHVILETQMVAVKINGRWRVKSLEVR | 2.11 |
| DDMHRELRKLAEEIEKLIETGDEDRLRTLLDPHTRVEIGDWSDMGWDAIHKMIRHIRIDSVTIRREHFFNGRVHTDIEVDGTIGDKKDIRHVELEIVIVDGRVKEIKMIYV | 2.13 |
| DDMQEIVLRIAEELIHRETTGDEEFIKRLLDPRVRLEINGVDSIGMEEFWRFLFEEEHKLGVDHVRFDIKHIRVVDGRAHSIGILNLNINGKEHRFDVRIDIVVIDGRVREVRIEIR | 2.51 |
| DDNEELTERFMKHLIRAQQTGDWERLKELFDPNTRLIVGEKHVVGREHFINEWLEHHNKLGIDHSQIELHNLRIINGKAHIDGHFIEEFNGKRIEIRIEVVIVKINGRWLIKEIHFI | 1.44 |
| DDNEETVERTFKYFIDSLRTGNEEDMYEMADPNVKIEIGDKRLHGREKFRDHMHELSRRADHIQVHLRIHDIQGEFLHLDVELILDVNGKELRIKVHFVAFKFNGRWRLRSMRQT | 1.04 |
| DDNTKHAHELVERWRHIIETGDEDIMEEMLDPNVRLLIGDKDLHGRETVEIWLRVLIRRFKNVRLESVHLESVEIQGNKAFSRVRVDLRYNGREDSMDVVVVVYKIDGRWRVHELSVH | 1.77 |
| DDQDTNSELAVHLWILSMITGDERFLNEYMDPNAKVHVGDKEYHGREAYEFLRHRVDHIRESHIRRVHTQGNKVRVDVEFRIEVDGREINVRTELVLIKINGQWRFTEFTFK | 2.22 |
| DDQEEFLQRLVEELLRIIETGDWRRFWELLDPNMRVDVDGREIHGMEILVTIIRELWRKLGIDHVHIRLDHVEAFNGQAHAETTVDLRYDGQIIIRESRNHFIIIDGKVEDEKYELR | 0.279 |
| DDQEEWAKIAMEMILEFLKTGDEELMLELLDPNVRVHLLIDGRHFEDHGRKATRWVIRFIKNVQVKIHNIEYQGDKVHIDVHVDVNGRKTRSREIWTLVDGRIEHVDVQDR | 1.2 |
| DDQEKLVRKAWELLVRHLHTGDEEHLDKLIDPNTRMTYNGRETHGMELFSHLMTHLRVKDMDLKEVRIVDGRAILDGHLHGEIDGRETTTRTTYIILKIDGRWFVKSVRFE | 1.15 |
